Laboratory results from US20220241314A1, “COMPOSITIONS AND METHODS FOR TREATMENT OF HEPATITIS B VIRUS INFECTION” (priority 2019, published 2022).
{ppp} = triphosphate

Key:
IRF3 = assay: Innate immune activation in primary human hepatocytes (immunoblot, RT-qPCR); format: cell-based; conditions: PHH, 24 and 72 hours
Method: (§1) FIGS. 7A-7C illustrate suppression of cccDNA in primary human hepatocytes. (7A) PHH were cultured alone or were treated with 100 ng/ml X-RNA (X100), or 50 ng/ml (P50), 100 ng/ml (P100) or 200 ng/ml (P200) poly-U/UC PAMP or were infected with SenV (control) and harvested 24 and 72 hours later. The cell lysates were analyzed by immunoblot for p-IRF3 (S386 phosphorylated, active IRF3), IRF3 (total IRF3), IFIT1, and Actin (control) using respective antibodies. (7B) PHH cultures were cultured alone or were treated with 100 ng/ml X-RNA (X100), or 100 ng/ml (P100) or 200 ng/ml (P200) poly-U/UC PAMP or were infected with SenV (control) and harvested 24 and 72 later. Cells were harvested, RNA extracted and analyzed by RT-qPCR to measure the expression levels of the indicated innate immune genes normalized to the level of GAPDH expression. Values are shown on the heat map as mean fold induction over nontreated cells from three independent experiments. (7C) PHH cultures were inoculated with HBV at moi of 200 Geq/cell. […] Three days later the cells were harvested, DNA isolated by isolated Hirt extraction, and analyzed by Southern blot using a HBV-specific probe. […]
(§2) PHH cultures were treated over a poly-U/UC PAMP dose-response and assessed innate immune activation. […]

dHepaRG cells = assay: Cytotoxicity, cellular ATP content (CellTiter-Glo), dHepaRG; conditions: 72 hours (FIG. 10D), 23.49 nM = 800 ng/ml
Method: HepG2-NTCP Cells (10A and 10C), dHepaRG (10B and 10D), and PHH (10E) were treated with increasing doses of F7 or poly-U/UC PAMP for 72 hours. Cell viability was determined concurrently by measuring ATP content, with values normalized to mock-treated cells. Graph represents the mean of triplicated samples in each of 3 independent experiments, with error bars showing standard deviation.ns=non-significant.
To determine the values of 90% of maximal Inhibitory concentration (IC90) and half-maximal Inhibitory concentration (IC50), as well as the cytotoxic concentration, CC50, of F7 and poly-U/UC, PAMP, two different cell lines were used, HepG2-hNTCP and dHepaRG cells.
Cytotoxicity assays: Cytotoxicity was evaluated from cultures of HepG2-C3A -hNTCP and dHepaRG cells using CellTiter-Glo as described (Edwards, T. C., et al. (2019). Inhibition of HBV replication by N-hydroxvisoquinolinedione and N-hydroxypyridinedinone ribonuclease H inhibitors. Antiviral research 164, 70-80). […] Cytotoxicity of each was measured with the ATP content as a measure of cell viability using the CellTiter-Glo™ reagent (Promega) per manufacturer's instructions. The plates were read using a luminescence plate reader (Berthold) and the relative luminescence unit (RLU) data generated from each well was calculated as percent signal compared to the untreated control. […]

HBV cccDNA = assay: cccDNA levels in HBV-infected primary human hepatocytes (Southern blot); format: cell-based, HBV (Genotype D); conditions: PHH, HBV 200 Geq/cell, single treatment at 1 dpi, harvested 3 dpi
Method: as §1, §2

B1: poly-U/UC PAMP: ~100 nt PAMP motif from the HCV genome comprising 5′ppp and the poly U/UC region, recognized by RIG-I; formulated in liposome (nucleic acid)
chain: GGCCAUCCUGUUUUUUUCCCUUUUUUUUUUUCUUUUUUUUUUUUUUUUUUUUUUUUUUUUUUUUUUCUCCUUUUUUUUUCCUCUUUUUUUCCUUUUCUUUCCUUU
modifications: RNA, 5' {ppp}, backbone and methylation of C not given here; formulated in liposome
notes: ~100 nt PAMP motif from the HCV genome comprising 5′ppp and the poly U/UC region, recognized by RIG-I; formulated in liposome
innate immune gene expression (RT-qPCR) (IRF3): robustly induced innate immune gene expression | IRF3 activation (phosphoserine 386 IRF3) and IFIT1 expression (IRF3; poly-U/UC PAMP 50-200 ng/ml, X-RNA 100 ng/ml): induced IRF3 activation | CC50 (dHepaRG cells): > 23.5 nM | cccDNA levels (HBV cccDNA): suppressed cccDNA levels in the infected PHH to levels similar to CsA treatment
